Laboratory results taken from IntAct's records for PubMed 19109891.

B1: Dystrophin (Homo sapiens), P11532-5 (parent)
chain: MREQLKGHETQTTCWDHPKMTELYQSLADLNNVRFSAYRTAMKLRRLQKALCLDLLSLSAACDALDQHNLKQNDQPMDILQIINCLTTIYDRLEQEHNNLVNVPLCVDMCLNWLLNVYDTGRTGRIRVLSFKTGIISLCKAHLEDKYRYLFKQVASSTGFCDQRRLGLLLHDSIQIPRQLGEVASFGGSNIEPSVRSCFQFANNKPEIEAALFLDWMRLEPQSMVWLPVLHRVAAAETAKHQAKCNICKECPIIGFRYRSLKHFNYDICQSCFFSGRVAKGHKMHYPMVEYCTPTTSGEDVRDFAKVLKNKFRTKRYFAKHPRMGYLPVQTVLEGDNMETPASSPQLSHDDTHSRIEHYASRLAEMENSNGSYLNDSISPNESIDDEHLLIQHYCQSLNQDSPLSQPRSPAQILISLESEERGELERILADLEEENRNLQAEYDRLKQQHEHKGLSPLPSPPEMMPTSPQSPRDAELIAEAKLLRQHKGRLEARMQILEDHNKQLESQLHRLRQLLEQPQAEAKVNGTTVSSPSTSLQRSDSSQPMLLRVVGSQTSDSMGEEDLLSPPQDTSTGLEEVMEQLNNSFPSSRGHNVGSLFHMADDLGRAMESLVSVMTDEEGAE

Variants of: B1
Conditions: with ank2_human ANK2, Q01484
Chain of ank2_human ANK2, Q01484 (Q01484 whole entry): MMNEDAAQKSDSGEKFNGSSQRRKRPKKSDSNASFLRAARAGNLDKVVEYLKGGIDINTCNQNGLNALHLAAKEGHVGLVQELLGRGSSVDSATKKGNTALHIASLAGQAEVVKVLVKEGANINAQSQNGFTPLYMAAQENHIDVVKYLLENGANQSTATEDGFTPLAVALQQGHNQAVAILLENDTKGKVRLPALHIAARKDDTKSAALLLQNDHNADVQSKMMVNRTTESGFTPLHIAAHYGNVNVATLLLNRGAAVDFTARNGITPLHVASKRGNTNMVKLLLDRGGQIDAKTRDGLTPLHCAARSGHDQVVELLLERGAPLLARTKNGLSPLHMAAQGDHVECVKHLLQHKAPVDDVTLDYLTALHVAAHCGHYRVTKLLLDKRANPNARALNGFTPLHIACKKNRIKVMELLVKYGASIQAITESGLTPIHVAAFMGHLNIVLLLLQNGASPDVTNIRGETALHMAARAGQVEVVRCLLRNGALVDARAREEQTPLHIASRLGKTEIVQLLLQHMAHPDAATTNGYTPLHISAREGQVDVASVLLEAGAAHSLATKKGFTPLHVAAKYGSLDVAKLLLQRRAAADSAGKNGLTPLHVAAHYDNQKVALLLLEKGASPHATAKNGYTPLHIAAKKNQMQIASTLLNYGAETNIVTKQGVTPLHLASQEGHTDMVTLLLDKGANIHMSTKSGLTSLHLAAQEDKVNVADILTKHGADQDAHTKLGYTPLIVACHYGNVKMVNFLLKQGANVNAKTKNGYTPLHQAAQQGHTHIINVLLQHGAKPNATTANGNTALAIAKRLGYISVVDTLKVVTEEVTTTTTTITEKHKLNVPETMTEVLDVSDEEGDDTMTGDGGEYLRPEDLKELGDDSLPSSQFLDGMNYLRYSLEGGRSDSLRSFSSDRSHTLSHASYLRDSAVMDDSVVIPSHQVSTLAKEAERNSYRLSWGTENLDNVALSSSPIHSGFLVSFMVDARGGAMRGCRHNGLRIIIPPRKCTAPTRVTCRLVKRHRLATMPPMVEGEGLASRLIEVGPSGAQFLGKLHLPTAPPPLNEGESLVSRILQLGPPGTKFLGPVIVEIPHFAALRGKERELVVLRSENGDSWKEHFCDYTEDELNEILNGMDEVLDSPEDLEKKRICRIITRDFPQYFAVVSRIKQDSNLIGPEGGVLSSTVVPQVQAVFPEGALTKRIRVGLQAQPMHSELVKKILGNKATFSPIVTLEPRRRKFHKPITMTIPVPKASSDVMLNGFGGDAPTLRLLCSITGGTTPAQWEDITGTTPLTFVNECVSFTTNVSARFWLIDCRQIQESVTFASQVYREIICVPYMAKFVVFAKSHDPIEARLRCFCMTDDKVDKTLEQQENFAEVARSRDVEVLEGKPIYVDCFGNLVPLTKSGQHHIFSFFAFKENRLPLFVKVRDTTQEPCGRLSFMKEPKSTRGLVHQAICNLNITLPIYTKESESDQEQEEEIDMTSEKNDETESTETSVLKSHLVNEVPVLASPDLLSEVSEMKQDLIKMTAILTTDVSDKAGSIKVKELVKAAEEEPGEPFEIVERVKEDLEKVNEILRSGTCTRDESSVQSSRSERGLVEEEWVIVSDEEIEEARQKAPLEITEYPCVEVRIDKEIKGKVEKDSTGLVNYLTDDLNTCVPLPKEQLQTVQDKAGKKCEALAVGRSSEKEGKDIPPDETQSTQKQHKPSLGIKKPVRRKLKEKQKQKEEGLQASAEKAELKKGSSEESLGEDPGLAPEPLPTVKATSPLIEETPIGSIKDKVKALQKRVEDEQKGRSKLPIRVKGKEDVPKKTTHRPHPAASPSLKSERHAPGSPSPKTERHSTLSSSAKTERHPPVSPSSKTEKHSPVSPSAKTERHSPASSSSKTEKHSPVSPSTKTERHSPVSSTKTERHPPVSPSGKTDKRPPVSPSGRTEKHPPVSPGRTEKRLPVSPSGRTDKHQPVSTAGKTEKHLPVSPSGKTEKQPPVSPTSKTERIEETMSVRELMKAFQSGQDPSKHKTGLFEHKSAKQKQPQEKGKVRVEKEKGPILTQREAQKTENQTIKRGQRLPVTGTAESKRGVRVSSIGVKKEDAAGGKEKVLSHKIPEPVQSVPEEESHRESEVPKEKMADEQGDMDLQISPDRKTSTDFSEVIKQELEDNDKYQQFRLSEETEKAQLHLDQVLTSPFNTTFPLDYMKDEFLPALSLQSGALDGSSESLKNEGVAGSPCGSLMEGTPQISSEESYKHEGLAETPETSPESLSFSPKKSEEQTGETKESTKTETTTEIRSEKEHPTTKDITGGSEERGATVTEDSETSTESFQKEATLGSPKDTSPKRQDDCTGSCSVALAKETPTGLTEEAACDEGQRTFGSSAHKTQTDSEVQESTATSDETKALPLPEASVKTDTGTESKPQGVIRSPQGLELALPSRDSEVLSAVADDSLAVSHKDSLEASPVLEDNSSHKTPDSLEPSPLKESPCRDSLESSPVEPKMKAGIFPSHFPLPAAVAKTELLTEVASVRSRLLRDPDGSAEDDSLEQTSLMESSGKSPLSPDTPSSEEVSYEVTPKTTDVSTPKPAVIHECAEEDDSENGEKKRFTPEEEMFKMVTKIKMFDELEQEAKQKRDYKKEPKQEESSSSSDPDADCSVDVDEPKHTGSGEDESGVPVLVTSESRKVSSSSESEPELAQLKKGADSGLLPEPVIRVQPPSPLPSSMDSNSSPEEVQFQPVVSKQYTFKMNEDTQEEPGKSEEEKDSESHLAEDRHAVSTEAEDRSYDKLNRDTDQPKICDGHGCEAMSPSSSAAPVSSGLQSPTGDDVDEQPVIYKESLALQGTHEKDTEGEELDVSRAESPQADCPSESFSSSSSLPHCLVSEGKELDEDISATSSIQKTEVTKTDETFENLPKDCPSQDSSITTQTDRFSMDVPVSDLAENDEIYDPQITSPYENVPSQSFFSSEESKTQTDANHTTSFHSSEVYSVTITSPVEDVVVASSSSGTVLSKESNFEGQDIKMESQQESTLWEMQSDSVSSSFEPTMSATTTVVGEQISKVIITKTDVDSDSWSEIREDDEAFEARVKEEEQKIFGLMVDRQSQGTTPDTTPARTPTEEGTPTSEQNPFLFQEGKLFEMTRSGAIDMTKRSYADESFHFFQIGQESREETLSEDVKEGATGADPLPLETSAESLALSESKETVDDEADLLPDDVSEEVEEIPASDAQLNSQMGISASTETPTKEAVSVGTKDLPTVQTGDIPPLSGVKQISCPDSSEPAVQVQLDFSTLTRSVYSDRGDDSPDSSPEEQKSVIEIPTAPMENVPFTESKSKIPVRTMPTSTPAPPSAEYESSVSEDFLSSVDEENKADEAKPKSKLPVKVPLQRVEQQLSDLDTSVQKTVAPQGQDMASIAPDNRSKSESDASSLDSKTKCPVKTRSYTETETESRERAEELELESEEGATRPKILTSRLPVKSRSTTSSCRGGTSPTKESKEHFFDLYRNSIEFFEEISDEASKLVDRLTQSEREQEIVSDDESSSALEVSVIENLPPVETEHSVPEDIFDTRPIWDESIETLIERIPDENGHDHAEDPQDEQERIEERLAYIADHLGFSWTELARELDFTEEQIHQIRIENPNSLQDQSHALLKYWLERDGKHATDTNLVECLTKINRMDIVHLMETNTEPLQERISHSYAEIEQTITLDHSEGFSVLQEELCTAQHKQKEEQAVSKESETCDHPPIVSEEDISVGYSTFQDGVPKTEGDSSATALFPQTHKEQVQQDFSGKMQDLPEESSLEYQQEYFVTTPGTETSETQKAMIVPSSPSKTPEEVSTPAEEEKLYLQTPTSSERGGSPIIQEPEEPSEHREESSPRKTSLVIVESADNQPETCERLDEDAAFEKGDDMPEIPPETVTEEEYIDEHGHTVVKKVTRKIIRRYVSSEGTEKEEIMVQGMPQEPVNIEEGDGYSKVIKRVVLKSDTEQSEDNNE

| effect of a mutation on the interaction | Variant |
| --- | --- |
| decreasing interaction | D267N |
